In patent US20230226096A1 (Orna Therapeutics, Inc., priority 2020, published 2023) one finds Expression data, which are given here for ten molecules.

This data set relates to HEK293 cells. The class given is cell-based, human. The settings on record: luminescence from secreted Gluc in supernatant 24 hours after transfection of HEK293 cells; circular RNA encoding Gluc with the named IRES (UTR truncated to 675 nt).

B1: Kunsagivirus B (nucleic acid)
DNA: GATTTTCTGGTTATCCCTTTTGGACTTGGTAGGGGCCCACGTGCCCACCCACCTCTGTGTGTGTTGATTTCTAATCGATGCCTGGCAGTGGCGGCCACCTCTCCTTACTGGTAAACCTCCGGTGAGTGAAGTTGTCAAGCTACAGGTACCGTGCAGGATGAAATGCGCACATGTGAACAAACTAGGAGTCATACACCGGGTCAAACTCTGGAAACGGAGTCCGGGACTCTGACCTTGGTTGGGTGAGCTCGAGGCATCACATTGATGGACGCGATTCGCTATCCTTCCCTAGTAGGACCTTGTGGTGTACCCCTGGTTGGGAATCCAGGGCTGGTCGGGTGCAGGGTGACAGCCTGTTCTCCACCTCAACCATTGTAGGAGAAATCAACCCCT
modifications: Kunsagivirus B
B1 displayed an Expression of 8.01E+04.

B2: Limnipivirus A (nucleic acid)
DNA: TTCTTTGGATATCCATTTAACGTGTACCCTATACGATAATTGGGGTGGATTCTGGATGCCTAGTTCCAGTGATTGGTTAAGAACTCGTTTACTACGTATAGTATGATTAGCAAAGTGCTCGATTGATCACGTAATGATCTATGTGGTTAAAAACCCAGTAGTATGGTATATACTCAGTAGTGTACACTGTGAGTACAACTCTTGGCGTAGAGAGAACAATTCACCCGAATCCGTGGCGTATCCATGGAAATAAGTTTACCTAATTGTATGTTACAAGGCATATGAGACATTTATGAGATATGGTTTATTTTGACTAAACGAGTGTAGAGGTGGTGGAGTCTATCCAACTTCAAGCCATGCAATTGTTGTGTTGATTGATATCATTGACCATTTTTGTGGATTGTGTACACATACAATTTGAAAATTAACCCCCTCAAGAATAAGACATGGGACCATTCGTGGTAGATACCGTGCTCGGATGCTTGAGATTAGATGGGTTAGACTAGTTTTGGAATGAGATTGCCGAGAAAGTCCCGCTAGACATGTTTTACAAGTCGTGGTATTCCGCTAGACTTTTTCGCAGACACATGGAAGGGTCCATGTGTTGTGCAATTGCAGGGTGACAGCCCAACTGCAGAGTTTTCCTTACTAGAATAAAAATCTGTTGTCAATTTT
modifications: Limnipivirus A
The molecule B2 came in with an Expression of 8.30E+04.

B3: Avisivirus B (nucleic acid)
DNA: CACCCCCTACTGCCCTAACCCCCAAAGTTAGTTATAGGGTGGCTCCCTACCCTTACTCCACGGGGTAAGCCCTAACCCGGTTGAATCTCAAGATCAGCCTTAGCGAGGACTATTAGTACCGCTCAAACCCTTTGCCTGTAGTGCCCAGGGGTCACAGAGGGGTGACCCTCTCCCTGGGGCCCAAAAGGCTAGGTGGCAAGACAGGGTCCAAGTGAGGGGCTACTCTAAGTAGCCCCAAGCTGAACATCCTGTCTGAAGCCACCCTTGCAGGGCCAGGTTTGATTGGGGAAACTAGACACCAGCTTTGTCCTGGGATTGGGGGGATATCGAGTTAGTCCAGGAGGTGCGAGTAGATGCCCCCGAAGGTACCCCAGGCACATCTGGGATCTGATCGGGGGCCCGTGACTATACAATAGGTAAACCGGGTTAAAAAACATGAAAGCGCCTCTCTCTTTCCTACTTCTTTTATTGACTGGTGACAAAAATAGCAGT
modifications: Avisivirus B
Turning to B3, the Expression worked out at 8.68E+04.

B4: Aquamavirus (nucleic acid, listed as Aquamavirus sp.)
DNA: TTCAAAGGTGGCGGGAGAGTTGGCCTCACGCTGTTTAGCGTGAGAGCTGGCTCTCCTGCCCCTTCCCCTGAGCCGGGGATCTTGGCTCATTCCCCTCTTTTCTATCCTCCCTCATTGGACTTTACGGATGACCCGGCATAAACTTGACAACCGATGTTGGATTTCCCTTGTGGCTGTGATGGAGGACATACCCTCGGGTGTAGTTGTGTGCGTGTCGCTCTGCGACTCGAGCTTCAAAGTGGTGCTGAAATATTGCAAGCGTCGTTGCTCGATTAACGGAGTGGTACAATCCTATGAACCCAAGTGCATTCATGCGAAAGCCCCGGAGGGGTGAGTAGCATGGACTCGAATCAGAAGAGCTGGAGCTCGCTTGGTACGGCACGTAGCATTGCTTTGCCTAAAGACCAAGGGGGTATGGCTATAGGTGGGGGCCTATAGCTTGTCCAGTGCTGGTTGACAGACTCGTGCTACGCGTCTGGTTCGAGTATAAGTAGCTGCAACTCACT
The molecule B4 registered an Expression of 4.51E+06.

B5: Fipivirus E (nucleic acid)
DNA: CTCTTCCGATCTTGGGGGTTCGCCCCCATGTCTCATTTCAACTAGCCGTGTGTCTAGTTAACGCACCGCCTCACCCTGGTCGTTATCGGGTCGGTTCTTGCGACCGTTAGATCGTGAGCGTTTCTGAGGATCAGTTCGTATAAGTTCTCCGGTGTGGCGACCGTAAAATCGTCACGTCCCATGCAATAGATGACGTTAAACTCGTTTGCCAGTTACATAAAGGAATGTTGTTACTTTTAAATTGTCTGTTACATTTAACATCTTGCCAGTATGATGCTACTGTACACTACGGGTGTAGGAACCTTGTAGTGTGACGTATCACTCATATGTGGATGGGTGCTCCAGACCTTTATGGAAGCTCTCAGTTAGTAGTGATCCTTGACTTCATTGAGCCCTGGTAACAGTGGAAGTCAAGATGTATATGTTGCTCAACACACTTCGGTGCTACGAAGCTGTTTGTGGAAGTACTGGCGAGGTTCATTCTGAATCATATGTTTGTCACATAGTCAGGGAGTGCCGTCGCTTACGACGGACCCTTTTTCTTTATAATTACAAATCTGTGTCTCAAGTGTTGTTGGCTGGTTTTCTTCTTCTGTTTTCATTGTTCATATATATACGTCAGAGTGAAAGACTCGGTATATACAAAACTGATCCAGA
modifications: Fipivirus E
The molecule B5 registered an Expression of 1.10E+05.

B6: Avisivirus A (nucleic acid)
DNA: TTCACTCGCTTTCCCCCCCTCTCTATAGGGGCGGTCTTTTAATTCTTATTAATTTCCTACTTTACTATCAAATTTCTTCTAAGTAGGGACTGAGGTCACTTAGCCCTCCCTCTCCTGGGCTTTCCAGGGTTATAGAGGTTCTAAAGCTAAGCCATGTGTCTTGAGCTACACTTAGTACAAAGGTTTAGTAATGATTGTACATGCCAGTAACCTTCTAGTGCCCATGGATTAAAGAGTGGTAACACTCTCCATGGGGCCCGAAAGGCTAGTGGGCATAGTTGGCATCAAGGAAGGGGTCCCCACCCCAACCTGAATTGCTGGCTAGAAGCTCACCTTAGAAGAAGTGCTGGGTGACAACGTGTCCAATCGTGAACGACTGATGGAAACGTGTGGAGATGGATATGTGGGGGTTCACTGAGTAGATGCCCTGAAGGAGAAATCTGATCAGGGGCCCGTGACTATACGCTAGGTAAACCGGGTATAAAAACCATGAAAGGTGGCCCAAAATCTCTTCCTTTTATTTTATTTCTATGTTGGTGACAGTCAAG
modifications: Avisivirus A
Take B6: the Expression is 1.91E+05.

B7: Limnipivirus C (nucleic acid)
DNA: GTTTCTGAGCACTGGTAAGAGCTTAGACAAACGTTTTTAAAATTTATTTTCTCTGCAACTTTTGTTTGTGTTTATTTTTATTTGTTAATTTTGCGCCTAAGCATTTGTTGCGAAGTATTTGATTCATTAGTAATATTACTTATTGTTTATTTAGATGGTATTCAAAGTGGTGGGAGTATCGAACCCAAGCGTCGTATGCTATCTCCTTGAACAATTTTTAATCATTGCGAAGTGATCATTGAAAAGGATAGGTGTTTAAGAACTCAAAGAGTGTTAATAATGTTGGGTGACAGGTGTCCCCATAGAATTTATTAACATGATTTGGACTGGTTATCTAGTAAGAAGAACCATCGAACGCACGAGCGAGCATTGCTTGCGGGGCAGTTACCCTGCGTCGATGTAAGTGTGTACCGGGGGGTGCACATGTTGATTCTTTATGGCCTGATAGGGTGCGTCATTCGCGCCTAGATAATTAGTATAATGCGAATGGAATAAATTTAC
modifications: Limnipivirus C
In turn, B7 displayed an Expression of 1.35E+05.

B8: Fipivirus C (nucleic acid)
DNA: CGCGGTTAAACCCGCGCAACCTTCTTTCAGCCGCGTCTGAGTAGCGCGGTTAGTCCTGATACACAGTTTCCTGTTGGGTACTGTGTCTTCGGGTGAATGCTCTTGTGTGAATGTTTTAGGCTGTTTAAGGGAAGCGTTTCCCCGTGCGCTGTGAGGGTTTCTCACGCTCTTTCGGGGTGCAGTCTCTTCTGTTGTTCATTAAGATGTATGGATGCACTGTTGTGAAGGATTTGTGAACTGGGGATCGACACCCCGTGAGGGGTGCCCCAGTGTCCATAGGAGTTTGCTGGAGAGGTGTGTTGCTGTAGTGACTATCCGTGACCTGGCATTCTAAGGTGTTGACCCCAACCTGTGAGGGTCTGGATCGCAGTGTTGAAGTGCTTTGGAGGGTTCAATGGGGTTTCTGTAGTGGATATTATGTGCTTGACGACTACTGGTACGAGTGTATTGGGGGTCTACATGTGTGA
modifications: Fipivirus C
On to B8, for which the Expression is recorded as 1.09E+05.

B9: RhPV (nucleic acid)
DNA: GATAAAAGAACCTATAATCCCTTCGCACACCGCGTCACACCGCGCTATATGCTGCTCATTAGGAATTACGGCTCCTTTTTTGTGGATACAATCTCTTGTATACGATATACTTATTGTTAATTTCATTGACCTTTACGCAATCCTGCGTAAATGCTGGTATAGGGTGTACTTCGGATTTCCGAGCCTATATTGGTTTTGAAAGGACCTTTAAGTCCCTACTATACTACATTGTACTAGCGTAGGCCACGTAGGCCCGTAAGATATTATAACTATTTTATTATATTTTATTCACCCCCCACATTAATCCCAGTTAAAGCTTTATAACTATAAGTAAGCCGTGCCGAAACGTTAATCGGTCGCTAGTTGCGTAACAACTGTTAGTTTAATTTTCCAAAATTTATTTTTCACAATTTTTAGTTAAGATTTTAGCTTGCCTTAAGCAGTCTTTATATCTTCTGTATATTATTTTAAAGTTTATAGGAGCAAAGTTCGCTTTACTCGCAATAGCTATTTTATTTATTTTAGGAATATTATCACCTCGTAATTATTTAATTATAACATTAGCTTTATCTATTTATA
modifications: Rhopalosiphum padi virus
Molecule B9 registered an Expression of 1.10E+05.

B10: Crohivirus A (nucleic acid)
DNA: GTTGAAGTCCATTTCTTGCTTGCCCCCGATGAATCCTGTTAAGGCCTCACGGCCCTAAGGGTGAAACTCGGTTATCCCCTCCTGTACTTCGAGAAGATTAGTACAACACTATGAAATCTACATCTTGTGATCCGGGATAACCCCAATCCCAGAAACCTGTGATGGGCGTCACCACCCCTCTTATGGTAACATAAGGGTGTCGCCGCGTTGGCACAGGACCCTTTGGGCTGGATGTTTTTAGTAATGGTGTCGAAGGTCCTATTGAGCTACAGGAGTTTCCTCCGCCCTGGTGAATGCGGCTAATCTTATCCCTGAGCCTAAGGTTGCGATCCAGCAACTTGATGGTCGTAATGCGTAAGTTGGGGGCGGAACCGACTACTTTCCAGAAGGCGTGTTTCTTTGTTTTGTCTGTTACTATGGTGCATGATATAGATATTGAATATTTGATCTTTTTGAGCTGTTTCTTATCTTATTGCTACATCCTTTCAGGTGTTGGATTTACATTTTGGTTAATAAG
modifications: Crohivirus A
Turning to B10, the Expression was 9.96E+04.
